From PMC5987771 come the findings set out here.

This series addresses T1, Pot1pC (C-terminal domain of the Pot1 DNA-binding domain) (Schizosaccharomyces pombe, UniProt O13988 198-339, V199D).
T1 sequence: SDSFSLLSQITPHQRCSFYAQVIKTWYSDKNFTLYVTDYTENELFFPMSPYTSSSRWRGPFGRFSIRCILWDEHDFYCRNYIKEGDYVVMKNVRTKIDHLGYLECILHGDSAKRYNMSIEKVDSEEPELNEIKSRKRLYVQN
Nature of the series: X-ray crystallography.

As for GGTTACGGT (mixed, ribose at 1 (rG1), rest DNA) [1R], the binding result is given as “binds”.
